Assay [1] deals with T1, 4H3189-bH.
T1 chain: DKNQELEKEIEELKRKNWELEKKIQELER
In words: two-hybrid library CCNG1.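 Further: natural log of median RNA to DNA barcode read ratio; higher means stronger binding.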

The target of assay [2] is T2, 4H4001-bH.
T2 chain: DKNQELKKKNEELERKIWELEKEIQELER
In words: two-hybrid library CCNG1.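 Further: natural log of median RNA to DNA barcode read ratio; higher means stronger binding.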

In assay [3] the target is T3, 4H3606-bH.
T3 chain: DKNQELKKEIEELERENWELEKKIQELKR
In words: two-hybrid library CCNG1.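 Further: natural log of median RNA to DNA barcode read ratio; higher means stronger binding.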

For assay [4], the target named is T4, 4H568-bH.
T4 chain: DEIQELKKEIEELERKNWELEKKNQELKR
Kind of assay: two-hybrid library CCNG1.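 Further: natural log of median RNA to DNA barcode read ratio; higher means stronger binding.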

Assay [5] deals with T5, 4H953-bH.
T5 chain: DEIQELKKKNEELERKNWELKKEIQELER
Kind of assay: two-hybrid library CCNG1.

For assay [6], the target named is T6, 4H3843-bH.
T6 chain: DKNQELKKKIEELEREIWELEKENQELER
Kind of assay: two-hybrid library CCNG1.

In assay [7] the target is T7, 4H918-bH.
T7 chain: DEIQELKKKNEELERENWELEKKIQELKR
In words: two-hybrid library CCNG1.

In assay [8] the target is T8, 4H370-bH.
T8 chain: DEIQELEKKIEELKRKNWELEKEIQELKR
In words: two-hybrid library CCNG1.

Assay [9] addresses T9, 4H3782-bH.
T9 chain: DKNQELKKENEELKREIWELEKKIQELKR
In words: two-hybrid library CCNG1.

The target of assay [10] is T10, 4H72-bH.
T10 chain: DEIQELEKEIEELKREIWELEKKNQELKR
In words: two-hybrid library CCNG1.

For assay [11], the target named is T11, 4H687-bH.
T11 chain: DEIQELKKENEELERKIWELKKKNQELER
Kind of assay: two-hybrid library CCNG1.

The target in assay [12] is T12, 4H607-bH.
T12 chain: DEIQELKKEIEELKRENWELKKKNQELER
Kind of assay: two-hybrid library CCNG1.

The target in assay [13] is T13, 4H883-bH.
T13 chain: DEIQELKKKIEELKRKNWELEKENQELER
In words: two-hybrid library CCNG1.

Assay [14] concerns the target T14, 4H462-bH.
T14 chain: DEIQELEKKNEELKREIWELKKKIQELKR
Kind of assay: two-hybrid library CCNG1.

The target of assay [15] is T15, 4H331-bH.
T15 chain: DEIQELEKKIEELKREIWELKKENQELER
Kind of assay: two-hybrid library CCNG1.

The target in assay [16] is T16, 4H797-bH.
T16 chain: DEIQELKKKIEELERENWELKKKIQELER
In words: two-hybrid library CCNG1.

Assay [17] deals with T17, P7mS.
T17 chain: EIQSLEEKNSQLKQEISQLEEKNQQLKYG
In words: two-hybrid library CC1. Particulars: mean of both orientations.

The target in assay [18] is T18, P7.
T18 chain: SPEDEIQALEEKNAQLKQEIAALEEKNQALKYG
In words: two-hybrid library CC1. Particulars: mean of both orientations.

For assay [19], the target named is T19, P8mS.
T19 chain: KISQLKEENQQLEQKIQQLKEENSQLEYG
In words: two-hybrid library CC1. Particulars: mean of both orientations.

In assay [20] the target is T20, P5mS.
T20 chain: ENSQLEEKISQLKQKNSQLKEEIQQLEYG
Kind of assay: two-hybrid library CC1.

Assay [21] has as its target T21, P9.
T21 chain: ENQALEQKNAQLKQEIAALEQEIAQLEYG
In words: two-hybrid library CC1. Particulars: mean of both orientations.

Assay [22] deals with T22, P6SC1.
T22 chain: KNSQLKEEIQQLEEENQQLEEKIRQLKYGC
Kind of assay: two-hybrid library CC1. Particulars: mean of both orientations.

In assay [23] the target is T23, P6mS.
T23 chain: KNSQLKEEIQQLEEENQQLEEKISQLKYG
Kind of assay: two-hybrid library CC1. Particulars: mean of both orientations.

Assay [24] has as its target T24, P6.
T24 chain: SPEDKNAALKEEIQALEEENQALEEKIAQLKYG
In words: two-hybrid library CC1. Particulars: mean of both orientations.

The target of assay [25] is T25, P8.
T25 chain: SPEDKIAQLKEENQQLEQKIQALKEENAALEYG
Kind of assay: two-hybrid library CC1. Particulars: mean of both orientations.

Assay [26] has as its target T26, P6SC2.
T26 chain: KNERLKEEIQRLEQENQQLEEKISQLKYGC
In words: two-hybrid library CC1. Particulars: mean of both orientations.

Assay [27] deals with T27, 4H906-bH.
T27 chain: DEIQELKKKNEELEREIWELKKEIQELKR
Kind of assay: two-hybrid library CCNG1.

Assay [28] deals with T28, 4H570-bH.
T28 chain: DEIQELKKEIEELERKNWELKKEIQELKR
In words: two-hybrid library CCNG1.

Assay [29] addresses T29, 4H584-bH.
T29 chain: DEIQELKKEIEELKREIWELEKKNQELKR
In words: two-hybrid library CCNG1.

Assay [30] addresses T30, 4H3631-bH.
T30 chain: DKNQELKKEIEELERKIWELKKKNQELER
In words: two-hybrid library CCNG1.

In assay [31] the target is T31, 4H3974-bH.
T31 chain: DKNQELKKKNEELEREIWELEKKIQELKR
In words: two-hybrid library CCNG1.

The target of assay [32] is T32, 4H3414-bH.
T32 chain: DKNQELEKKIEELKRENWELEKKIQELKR
Kind of assay: two-hybrid library CCNG1.

Assay [33] has as its target T33, 4H850-bH.
T33 chain: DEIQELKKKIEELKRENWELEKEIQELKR
Kind of assay: two-hybrid library CCNG1.

The target of assay [34] is T34, 4H3817-bH.
T34 chain: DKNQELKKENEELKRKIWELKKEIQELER
In words: two-hybrid library CCNG1.

The target of assay [35] is T35, 4H619-bH.
T35 chain: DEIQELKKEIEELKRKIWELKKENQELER
In words: two-hybrid library CCNG1.

Assay [36] has as its target T36, 4H683-bA.
T36 chain: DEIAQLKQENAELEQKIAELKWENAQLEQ
Kind of assay: two-hybrid library CCNG1.

Assay [37] has as its target T37, 4H3638-bH.
T37 chain: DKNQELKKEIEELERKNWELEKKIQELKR
In words: two-hybrid library CCNG1.

In assay [38] the target is T38, 4H3855-bA.
T38 chain: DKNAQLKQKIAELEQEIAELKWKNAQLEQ
In words: two-hybrid library CCNG1.

The target of assay [39] is T39, 4H717-bA.
T39 chain: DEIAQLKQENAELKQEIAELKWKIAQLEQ
In words: two-hybrid library CCNG1.

Assay [40] deals with T40, 4H953-bA.
T40 chain: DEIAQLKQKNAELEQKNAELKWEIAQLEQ
Kind of assay: two-hybrid library CCNG1.

Assay [41] concerns the target T41, 4H883-bA.
T41 chain: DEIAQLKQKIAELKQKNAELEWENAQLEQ
In words: two-hybrid library CCNG1.

Assay [42] deals with T42, 4H4001-bA.
T42 chain: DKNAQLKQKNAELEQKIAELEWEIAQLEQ
Kind of assay: two-hybrid library CCNG1.

Assay [43] has as its target T43, 4H3354-bA.
T43 chain: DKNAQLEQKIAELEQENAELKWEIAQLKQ
In words: two-hybrid library CCNG1.

Assay [44] has as its target T44, 4H918-bA.
T44 chain: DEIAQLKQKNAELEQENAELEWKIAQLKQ
In words: two-hybrid library CCNG1.

Assay [45] deals with T45, P9A-bA.
T45 chain: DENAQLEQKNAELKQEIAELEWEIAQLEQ
Kind of assay: two-hybrid library CCNG1.

For assay [46], the target named is T46, 4H3427-bA.
T46 chain: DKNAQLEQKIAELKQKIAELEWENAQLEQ
In words: two-hybrid library CCNG1.

Assay [47] concerns the target T47, 4H568-bA.
T47 chain: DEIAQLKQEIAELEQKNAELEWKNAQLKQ
In words: two-hybrid library CCNG1.

The target of assay [48] is T48, 4H338-bA.
T48 chain: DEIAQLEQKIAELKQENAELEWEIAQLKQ
In words: two-hybrid library CCNG1.

In assay [49] the target is T49, 4H797-bA.
T49 chain: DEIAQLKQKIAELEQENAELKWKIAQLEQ
In words: two-hybrid library CCNG1.

The target in assay [50] is T50, 4H3782-bA.
T50 chain: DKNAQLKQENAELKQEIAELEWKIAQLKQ
In words: two-hybrid library CCNG1.

Assay [51] addresses T51, 4H72-bA.
T51 chain: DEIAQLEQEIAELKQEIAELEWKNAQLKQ
Kind of assay: two-hybrid library CCNG1.

The target of assay [52] is T52, 4H967-bA.
T52 chain: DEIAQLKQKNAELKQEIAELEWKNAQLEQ
In words: two-hybrid library CCNG1.

The target in assay [53] is T53, 4H607-bA.
T53 chain: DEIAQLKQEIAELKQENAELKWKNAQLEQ
Kind of assay: two-hybrid library CCNG1.

Assay [54] concerns the target T54, 4H908-bA.
T54 chain: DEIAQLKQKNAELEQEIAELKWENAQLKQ
In words: two-hybrid library CCNG1.

Assay [55] concerns the target T55, 4H687-bA.
T55 chain: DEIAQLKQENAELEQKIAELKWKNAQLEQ
In words: two-hybrid library CCNG1.

Assay [56] has as its target T56, 4H754-bA.
T56 chain: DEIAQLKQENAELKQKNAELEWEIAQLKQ
Kind of assay: two-hybrid library CCNG1.

The target of assay [57] is T57, 4H454-bA.
T57 chain: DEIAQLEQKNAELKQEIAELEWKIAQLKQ
Kind of assay: two-hybrid library CCNG1.

B1: 4H3189-bH (peptide)
chain: DKNQELEKEIEELKRKNWELEKKIQELER
In the case of B1, the interaction score in assay [1] is 0.907; in [2] it was -0.0803; in assay [3], -0.801; in [4], -0.408; in assay [5] it was 0.375; in [6] it was -0.157. The interaction score in [7] was -0.173; in assay [8], -0.165; in assay [9], -0.496; in assay [10] it was -0.107; in assay [11], -0.776; in assay [12], -2.19. Further, the interaction score in assay [13] is -0.365; in [14], -0.167; in assay [15] it was -0.227; in assay [16] it was -0.148.

B2: P5mS (peptide)
chain: ENSQLEEKISQLKQKNSQLKEEIQQLEYG
For B2, the interaction score in assay [17] was -2.67; in assay [18], -2.73; in [19], -2.74; in [20], -3.02; in [21], -2.67; in [22] it was 0.104. Also, the interaction score in assay [23] is -0.205; in [24], 0.124; in [25], -2.02; in assay [26] it was 0.207.

B3: 4H3414-bH (peptide)
chain: DKNQELEKKIEELKRENWELEKKIQELKR
With B3, the interaction score in [27] is -0.25; in [28] it was 0.846; in assay [29], -0.695; in assay [30], 0.689; in assay [31], 0.33; in assay [32], 0.938. Further, the interaction score was 0.00973 in assay [33]; 0.48 in [34]; 0.721 in assay [35]; 0.0371 in [36]; -1.45 in assay [37].

B4: 4H3631-bH (peptide)
chain: DKNQELKKEIEELERKIWELKKKNQELER
Take B4: the interaction score in assay [27] is -1.74; in assay [28] it was -1.5; in assay [29] it was -0.0526; in [5] it was 0.206; in [30], 1.13; in [31], 0.292. Further, the interaction score in [33] is -1.94; in assay [34], 0.637; in [35] it was 0.647; in assay [37], 0.578.

B5: 4H3354-bA (peptide)
chain: DKNAQLEQKIAELEQENAELKWEIAQLKQ
In the case of B5, the interaction score in [38] was -0.492; in [39] it was -0.712; in assay [40] it was -0.675; in assay [41] it was -0.0506; in assay [42], -0.362; in assay [43], 1.66. Moreover, the interaction score in assay [44] was -0.0912; in assay [45], -1.59; in assay [46] it was -0.0236; in assay [47], -1.07; in assay [48], 0.149; in assay [49], -1.14. In addition, the interaction score is -0.851 in assay [50]; -0.822 in assay [51]; -0.407 in assay [52]; -0.0475 in assay [53]; -1.17 in [54]; 0.42 in assay [55]. In addition, the interaction score was -0.511 in assay [56] and -1.24 in assay [57].

For the origin of these results see PMC10397247.
